# T1: astexin-1
# T1 chain: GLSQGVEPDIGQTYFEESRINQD
# T2: unthreaded astexin-2 ΔC4
# T2 chain: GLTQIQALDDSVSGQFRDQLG
# T3: astexin-2 ΔC3 (lassoed, threaded)
# T3 chain: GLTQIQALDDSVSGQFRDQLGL
# T4: astexin-3 ΔC1
# T4 chain: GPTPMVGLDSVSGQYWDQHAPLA
# T5: astexin-3 (lassoed, full-length)
# T5 chain: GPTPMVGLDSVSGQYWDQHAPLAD
# T6: astexin-3 ΔC2
# T6 chain: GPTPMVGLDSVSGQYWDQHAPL
# T7: astexin-2 ΔC4 (lassoed, threaded)
# T7 chain: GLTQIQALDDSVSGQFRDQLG
# T8: unthreaded astexin-2 ΔC3
# T8 chain: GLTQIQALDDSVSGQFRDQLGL
# Columns and labels:
# astexin-1 = molecular target: T1, astexin-1
# unthreaded astexin-2 ΔC4 = molecular target: T2, unthreaded astexin-2 ΔC4
# [1] = molecular target: T3, astexin-2 ΔC3 (lassoed, threaded)
# astexin-3 ΔC1 = molecular target: T4, astexin-3 ΔC1
# [2] = molecular target: T5, astexin-3 (lassoed, full-length)
# astexin-3 ΔC2 = molecular target: T6, astexin-3 ΔC2
# [3] = molecular target: T7, astexin-2 ΔC4 (lassoed, threaded)
# unthreaded astexin-2 ΔC3 = molecular target: T8, unthreaded astexin-2 ΔC3
Protein,"hydrolysis (HPLC retention time, MS) after 6 hours with 860 nM AtxE2 (astexin-1)",hydrolysis (HPLC retention time) in lysate extract treated with AtxE2 (unthreaded astexin-2 ΔC4),hydrolysis (HPLC retention time) of purified peptide with 424 nM AtxE2 [1],"hydrolysis (HPLC retention time, MALDI MS) after 6 hours with 860 nM AtxE2 [1]","hydrolysis (HPLC retention time, MALDI MS) after 6 hours with 860 nM AtxE2 (astexin-3 ΔC1)",Km [2],"hydrolysis (HPLC retention time, MALDI MS) after 6 hours with 860 nM AtxE2 [2]",kcat [2],kcat/Km [2],"hydrolysis (HPLC retention time, MALDI MS) after 6 hours with 860 nM AtxE2 (astexin-3 ΔC2)","hydrolysis (HPLC retention time, MALDI MS) after 6 hours with 860 nM AtxE2 [3]",hydrolysis (HPLC retention time) in lysate extract treated with AtxE2 (unthreaded astexin-2 ΔC3),"hydrolysis (HPLC retention time) of purified, heat-treated peptide with 424 nM AtxE2 (unthreaded astexin-2 ΔC3)",activity toward astexin-3 in vitro [2]
C-terminally His-tagged AtxE2 (protein) AAREAPPVTPEVLVRLADIGTMSASETTPLLSLSPDGRYVAFQVRQADPVTNLNVFRMVVKATDGATDAIDVDVGGEYLFWTIPSWGYARNAPSGANLTIQPRWSPSGTHLAYLRQDQGRVRVWRASVKGEGASPVIEDAYDIEDVQWLDDNTLIYSGRPGFVEAEAEIEREGRRGWVYDERFHPLTGARPRVLEPISIVYQVLDLKTGTRRAATPTEVARLREKPDPLRAMVGRTTFSVSRTDPQNINAPTTLVARRGEGEPVRCDEEACQNITRMWGDETANVLYFLRREGWASNEMALYRMPADALKPVRIWHATGLLQGCERQAKRLICAQESALQPRRLVTLNLTSGQMSPLYDPNPDLSRYRLPKVERLTLRNRNGIEVFSDLVLPPDYQLGTRLPLVIVQYSSRGFLRGGTGDENPILPLATAGFAVLSFHSPRSEASYQRFTSPIAQSKAEYSNWRNRWNILHTLEDLIDDLDRRGVIDPARVGLTGLSDGATTVHFGLINSHRFAAAVTSSCCTDSFTASVMNGPRISGALKAYGIETDQADDGPFWAATSFVVNASRLDTPLLIQSADEEYLGALPGFTALQQARKPVELIIYPNEHHVKWQPAHRLAVYNRTIDWFRFWLMDQSDPAPDKAAQYDRWRALRALRQKSPSPTPAP,the retention time of astexin-1 did not shift after incubation with AtxE2 and no molecular weight difference was observed in the MS,the retention times for these unthreaded species did not change after incubation with AtxE2,only the threaded species exhibited a change in retention time consistent with hydrolysis of the isopeptide bond,"an increase of 18 mass units for all astexin-2 and astexin-3 species, corresponding to the addition of a water molecule via the cleavage of a single amide bond","an increase of 18 mass units for all astexin-2 and astexin-3 species, corresponding to the addition of a water molecule via the cleavage of a single amide bond",Km equal to 131 µM,"an increase of 18 mass units for all astexin-2 and astexin-3 species, corresponding to the addition of a water molecule via the cleavage of a single amide bond",kcat equal to 0.38 s^-1,kcat/Km value for AtxE2 to be 2.9×10^3 M^-1 s^-1,"an increase of 18 mass units for all astexin-2 and astexin-3 species, corresponding to the addition of a water molecule via the cleavage of a single amide bond","an increase of 18 mass units for all astexin-2 and astexin-3 species, corresponding to the addition of a water molecule via the cleavage of a single amide bond",the retention times for these unthreaded species did not change after incubation with AtxE2,only the threaded species exhibited a change in retention time consistent with hydrolysis of the isopeptide bond,
His-tagged S527A mutant of AtxE2 (protein) AAREAPPVTPEVLVRLADIGTMSASETTPLLSLSPDGRYVAFQVRQADPVTNLNVFRMVVKATDGATDAIDVDVGGEYLFWTIPSWGYARNAPSGANLTIQPRWSPSGTHLAYLRQDQGRVRVWRASVKGEGASPVIEDAYDIEDVQWLDDNTLIYSGRPGFVEAEAEIEREGRRGWVYDERFHPLTGARPRVLEPISIVYQVLDLKTGTRRAATPTEVARLREKPDPLRAMVGRTTFSVSRTDPQNINAPTTLVARRGEGEPVRCDEEACQNITRMWGDETANVLYFLRREGWASNEMALYRMPADALKPVRIWHATGLLQGCERQAKRLICAQESALQPRRLVTLNLTSGQMSPLYDPNPDLSRYRLPKVERLTLRNRNGIEVFSDLVLPPDYQLGTRLPLVIVQYSSRGFLRGGTGDENPILPLATAGFAVLSFHSPRSEASYQRFTSPIAQSKAEYSNWRNRWNILHTLEDLIDDLDRRGVIDPARVGLTGLADGATTVHFGLINSHRFAAAVTSSCCTDSFTASVMNGPRISGALKAYGIETDQADDGPFWAATSFVVNASRLDTPLLIQSADEEYLGALPGFTALQQARKPVELIIYPNEHHVKWQPAHRLAVYNRTIDWFRFWLMDQSDPAPDKAAQYDRWRALRALRQKSPSPTPAP,,,,,,,,,,,,,,AtxE2 S527A had no activity toward astexin-3

# From US20190040107
